The source of these data is paper doi:10.1101/716654 (bioRxiv, 2019).

This data set deals with the molecule itself. The experiment in a line: native gel or EMSA.

B1: hNav1.7^GFP (human voltage-gated sodium channel Nav1.7 fused to C-terminal GFP) (natural protein)
chain: not shown
Turning to B1, the “stoichiometry N” value was 2.
